Reference: PMC11303327, “MnoSR removal in Mycobacterium smegmatis triggers broad transcriptional response to 1,3-propanediol and glucose as sole carbon sources”

Experiments:
[1] = molecular target: T1, MnoR (Mycobacterium smegmatis, UniProt A0R5L8 1-216); assay: EMSA; 100x polyA instead of salmon sperm DNA; EMSA: 50 mM Tris-HCl (pH not stated), 100 mM NaCl, 10 mM MgCl2, 100 ug/ml BSA, 5% glycerol, 5 nM DNA, 30 min 25 °C, 5% native gel at 4 °C; MST: PBS-T, room temperature, DNA 60 nM (perfect), 15 nM (2MM), 120 nM (4MM); details: protein: recombinant, tags: N-terminal 6xHis, chain copies: 2, label: 5'-Cy5 on strand 1
T1 sequence: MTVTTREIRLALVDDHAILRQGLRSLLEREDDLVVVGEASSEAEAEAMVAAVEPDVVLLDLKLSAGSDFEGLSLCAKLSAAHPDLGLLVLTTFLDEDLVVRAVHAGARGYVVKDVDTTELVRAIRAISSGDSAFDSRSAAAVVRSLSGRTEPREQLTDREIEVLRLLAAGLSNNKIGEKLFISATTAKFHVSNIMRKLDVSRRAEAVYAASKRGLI

[2] = molecular target: T1, MnoR; assay: MST; PBS-T; EMSA: 50 mM Tris-HCl (pH not stated), 100 mM NaCl, 10 mM MgCl2, 100 ug/ml BSA, 5% glycerol, 5 nM DNA, 30 min 25 °C, 5% native gel at 4 °C; MST: PBS-T, room temperature, DNA 60 nM (perfect), 15 nM (2MM), 120 nM (4MM); details: protein: recombinant; tags: N-terminal 6xHis; chain copies: 2; label: 5'-Cy5 on strand 1; blunt

Row | Binder | binding result ([1]; blunt) | other results
1 | mno 4MM (dsDNA) DNA 1: CACGCTGATCACGTCCGACGTCGACGAGCGCGACCAGCCGTTCATCACCGGTGAGCGCACCAAGGAAGGCTTCTTCCGCGTGAAGAA DNA 2: TTCTTCACGCGGAAGAAGCCTTCCTTGGTGCGCTCACCGGTGATGAACGGCTGGTCGCGCTCGTCGACGTCGGACGTGATCAGCGTG | binds | –
2 | mno 3MM (dsDNA) DNA 1: GCTGGAGGAGGCGTTCACCGCTGACTGGCTCGCCCAGCACTCCTAAGCCGGTGGGCGCCGTCACCCGCGGCACCACCGGTTACAACC DNA 2: GGTTGTAACCGGTGGTGCCGCGGGTGACGGCGCCCACCGGCTTAGGAGTGCTGGGCGAGCCAGTCAGCGGTGAACGCCTCCTCCAGC | binds | –
3 | mno perfect motif (dsDNA) DNA 1: GCCTGAGCGATCTGGGGCTCTGAGCACCCTCGCCCACCGGTGAGCCGCCGGTGGGCGGCCACCCTGCCCGACCGGACAGTTCTGCCG DNA 2: CGGCAGAACTGTCCGGTCGGGCAGGGTGGCCGCCCACCGGCGGCTCACCGGTGGGCGAGGGTGCTCAGAGCCCCAGATCGCTCAGGC | – | Kd [2]: 2.37 µM
4 | mno 2MM (dsDNA) DNA 1: ACCTGGCGGATCTGAGCCCGGCAGGCGATCCGCACACCGGTACCGTGCTGGTGGGCGCGAGCCCCGAGTTGCTGGTCGCCCGCGACG DNA 2: CGTCGCGGGCGACCAGCAACTCGGGGCTCGCGCCCACCAAGCACGGTACCGGTGTGCGGATCGCCTGCCGGGCTCAGATCCGCCAGGT | – | binding result [1]: binds
